Source: patent US20100143940A1, “(3R)-HYDROXYACYL-ACP DEHYDRATASE ENZYMES USED IN THE BIOSYNTHESIS OF MYCOLIC ACIDS AND USE OF SAME FOR SCREENING ANTIBIOTICS” (priority 2007, published 2010)

Experiments:
2-trans-octenoyl-ACP [1] = biological target: 2-trans-octenoyl-ACP (UniProt P0A6A8)
[2] = biological target: T1, 2-trans-octenoyl-ACP, P0A6A8
T1 chain: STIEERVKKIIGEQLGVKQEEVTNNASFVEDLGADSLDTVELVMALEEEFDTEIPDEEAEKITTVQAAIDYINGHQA

[3] = Hydratase activity monitored by spectrophotometry at 263 nm, control experiments of the isomerase test; format: biochemical; settings: 2-trans-decenoyl-CoA 10 μM; Rv0635-Rv0636 80 nM or Rv0636-Rv0637 543 nM; 100 mM sodium phosphate pH 7.0, 25° C.
Protocol: (§1) These reactions are monitored by spectrophotometry at 263 nm by means of a thermostated Uvikon 923 spectrophotometer (Kontron Instruments). They are carried out in a quartz cuvette (optical path of 1 cm) in a total volume of 700 μl at 25° C. The reaction mixture contains 100 mM sodium phosphate buffer, pH 7.0, and varying concentrations of substrates. After equilibration of the base line on the reaction mixture in the absence of the enzyme, the reactions are triggered by the addition of enzyme, and then monitored for 1.5 to 5 min. The reaction rate corresponds to the initial rate measured by plotting the tangent of the curve OD=f(time) at time zero.
The conversions corresponding to the hydration reaction and to the dehydration reaction are associated, respectively, with a decrease and with an increase in the absorbance at 263 nm, linked to the double bond conjugated to the carbonyl. A variation in OD263 of 0.67 corresponds to a variation in concentration of 100 μM.
(§2) The ability of the proteins to catalyze the isomerization reaction was studied in the presence of 3-cis-decenoyl-CoA (10 μM) and of Rv0635-Rv0636 enzyme (80 nM) or Rv0636-Rv0637 enzyme (543 nM). […] The reactions were monitored at 263 nm, where the increase in absorbance results from the conversion of the 3-cis-decenoyl-CoA into 2-trans-decenoyl-CoA.

[4] = Isomerase activity, conversion of 3-cis-enoyl into 2-trans-enoyl, monitored at 263 nm; format: biochemical; settings: 3-cis-decenoyl-CoA 10 μM; Rv0635-Rv0636 80 nM or Rv0636-Rv0637 543 nM
Protocol: as §1
As in certain FAS-II systems described, the dehydration step can be catalyzed either by a (3R)-hydroxyacyl-ACP dehydratase, or by a (3R)-hydroxyacyl-ACP dehydratase/isomerase of FabA type which, in vivo, converts the 2-trans-enoyls, formed by the dehydration step, into 3-cis-enoyls. […]
as §2

2-trans-octenoyl-ACP [5] = experiment: Study of the ACP-dependency, hydration of the ACP derivative at 263 nm; format: biochemical, E. coli; settings: 2-trans-octenoyl-ACP 2 μM; Rv0635-Rv0636 80 nM, Rv0636-Rv0637 311 nM, Rv0636 alone 311 nM
[6] = Study of the ACP-dependency, hydration of the CoA derivative at 263 nm; format: biochemical; settings: 2-trans-octenoyl-CoA 2 μM; compared with control experiment (no enzyme)
Protocol: as §1
The activities of the enzymes Rv0635-Rv0636 (80 nM), Rv0636-Rv0637 (311 nM) or Rv0636 alone (311 nM) were compared in the presence of 2-trans-octenoyl-ACP (2 μM) or of 2-trans-octenoyl-CoA (2 μM).

[7] = Substrate specificity, 2-trans-enoyl-CoA of various chain lengths; format: biochemical
Protocol: as §1
The substrate specificity was studied in the presence of 2-trans-enoyl-CoA of various chain lengths (C4-C20). The initial rates were measured and compared at a very low substrate concentration in order to reduce as much as possible the solubility problems encountered with these amphiphilic compounds. […]
The tests were carried out in 100 mM sodium phosphate buffer, pH 7.0, in the presence of 3-hydroxybutyryl-CoA (25 or 75 μM) or of 2-trans-octenoyl-CoA (25 μM) or of crotonoyl-CoA (25 μM), and of enzyme (Rv0635-Rv0636: 80 nM; Rv0636-Rv0637: 543 nM). […] After addition of the enzyme, the reactions were monitored by spectrophotometry at 263 nM for 1.5 min. […]

Molecule: Rv0635-Rv0636 heterodimer
- specific activity (hydration followed at 263 nm), 2 µM substrate, 80 nM enzyme (2-trans-octenoyl-ACP [1]): 0.28 µmol/min/mg

B1: Rv0636-Rv0637 heterodimer (protein)
chain 1: HHHHHHMALREFSSVKVGDQLPEKTYPLTRQDLVNYAGVSGDLNPIHWDDEIAKVVGLDTAIAHGMLTMGIGGGYVTSWVGDPGAVTEYNVRFTAVVPVPNDGKGAELVFNGRVKSVDPESKSVTIALTATTGGKKIFGRAIASAKLA
chain 2: MALKTDIRGMIWRYPDYFIVGREQCREFARAVKCDHPAFFSEEAAADLGYDALVAPLTFVTILAKYVQLDFFRHVDVGMETMQIVQVDQRFVFHKPVLAGDKLWARMDIHSVDERFGADIVVTRNLCTNDDGELVMEAYTTLMGQQGDGSARLKWDKESGQVIRTA
- specific activity (hydration followed at 263 nm), 2 µM substrate [2]: 0.047 µmol/min/mg of protein

B2: Rv0636-Rv0637: recombinant heterodimeric (3R)-hydroxyacyl-ACP dehydratase of the M. tuberculosis H37Rv FAS-II system, Rv0636 plus Rv0637 (protein)
chain 1: B1 chain 1
chain 2: B1 chain 2
- specific activity [3]: 0.02 μmol/min/mg of protein
- isomerase activity [4]: do not exhibit any isomerase activity
- specific activity in the presence of 2-trans-octenoyl-ACP (2-trans-octenoyl-ACP [5]): 0.047 µmol/min/mg
- activity in the presence of 2-trans-octenoyl-CoA [6]: not significant
- activity on C12-C20 trans-2-enoyl-CoAs at low substrate concentration ([7]; 2.5 μM substrate): no activity could be detected
- activity in the presence of short-chain (C4-C8) substrates ([7]; 2.5 or 25 μM 2-trans-enoyl-CoA, Rv0635-Rv0636 80 nM, Rv0636-Rv0637 543 nM): inactive

B3: Rv0636 homodimer: recombinant Rv0636 protein of M. tuberculosis H37Rv (SEQ ID No. 2) carrying the hydratase 2 motif, tested alone (protein, listed as Mycobacterium tuberculosis)
chain: MALREFSSVKVGDQLPEKTYPLTRQDLVNYAGVSGDLNPIHWDDEIAKVVGLDTAIAHGMLTMGIGGGYVTSWVGDPGAVTEYNVRFTAVVPVPNDGKGAELVFNGRVKSVDPESKSVTIALTATTGGKKIFGRAIASAKLA
modifications: homodimer
- specific activity in the presence of 2-trans-octenoyl-ACP (2-trans-octenoyl-ACP [5]): no activity
